# Assay results published in the DeepSol protein solubility set.
# Assay: soluble on expression in E. coli; label from the status in PepcDB or PDB records
row,Sequence,soluble on expression in E. coli
1,MIYKACIRKRCGGVCVGEELKPEKIQEIRLGDCPICGGKGTLKAIQFIHRIPYFGEVMESTVVCERCGYRNSDVIILEEREPRLYEVKVEEEKDLFIRVVRSKSGTIELEELGIKIEPGPAAEGFVSNIEGVLERAKEVLLMARDFKEQENDREAVRRIDELLKYIEEVKEGKKPLTVRIMDPFGNSALIGEKVKSRKLTKEEIRKLSKGPYIVIEPDEVPQQLEHHHHHH,not soluble
2,AGLENTDHTNNEHRLTQLLSIAEECETLDRLKQLVDSGRIFTAYNGFEPSGRIHIAQALITVMNTNNMIECGGQMIIYIADWFAKMNLKMNGDINKIRELGRYFIEVFKACGINLDGTRFIWASEFIASNPSYIERMLDIAEFSTISRVKRCCQIMGRNESDCLKASQIFYPCMQAADVFELVPEGIDICQLGIDQRKVNMLAIEYANDRGLKIPISLSHHMLMSLSGPKKKMSKSDPQGAIFMDDTEQEVSEKISRAYCTDETFDNPIFEYIKYLLLRWFGTLNLCGKIYTDIESIQEDFSSMNKRELKTDVANYINTIIDLVREHFKKPELSELLSNVKSYQQPSK,soluble
3,MSPRCANLALKHYLLKPVQRIPQYRLLLTDYLKNLIEDAGDYRDTQDALAVVVEVANHANDTMKQGDNFQKLMQIQYSLNGHHEIVQPGRVFLKEGILMKLSRKVMQPRMFFLFNDALLYTTPVQSGMYKLNNMLSLAGMKVRKPTQEAYQNELKIESVERSFILSASSATERDEWLEAISRAIEEYAKKRITFCPSRSLDEADSENKEEVSPLGSKAPIWIPDTRATMCMICTSEFTLTWRRHHCRACGKIVCQACSSNKYGLDYLKNQPARVCEHCFQELQKLDHQHSPRIGSPGNHKSPSSALSSVLHSIPSGRKQKKIPAALKEVSANTEDSSMSGYLYRSKGNKKPWKHFWFVIKNKVLYTYAASEVRSEI,soluble
4,MGSDKIHHHHHHMKVHVLASGSTGNAVLFQFGESKILVDAGISCRRIENGLQAIGTRAGELDAVLLTHEHTDHIKGLDVFIRKYQLPVFARPATWSKIDCRKKFPGECIKELEGTFSLGKVLIEPFAISHDAIDPVGFCFYYGKRKAVIATDLGMVSREVEKALSFSDIAVLESNHDPQMLKNGPYPPYLKKRIEGREGHLSNFDTARLLSTVPRHNPMQVLLAHISQQNNHPMLAQQTVSKIMQDSGCEVGREIGIYPTFPHHGITCTMTRVFAVNAPLFQWADLLAKQDGRGKAN,not soluble
5,MHHHHHHSSGVDLGTENLYFQSMASESETLNPSARIMTFYPTMEEFRNFSRYIAYIESQGAHRAGLAKVVPPKEWKPRASYDDIDDLVIPAPIQQLVTGQSGLFTQYNIQKKAMTVREFRKIANSDKYCTPRYSEFEELERKYWKNLTFNPPIYGADVNGTLYEKHVDEWNIGRLRTILDLVEKESGITIEGVNTPYLYFGMWKTSFAWHTEDMDLYSINYLHFGEPKSWYSVPPEHGKRLERLAKGFFPGSAQSCEAFLRHKMTLISPLMLKKYGIPFDKVTQEAGEFMITFPYGYHAGFNHGFNCAESTNFATRRWIEYGKQAVLCSCRKDMVKISMDVFVRKFQPERYKLWKAGKDNTVIDHTLPTPEAAEFLKESEL,soluble
6,MGSDKIHHHHHHMSILTVSNLSHGFGDRAIFEDVSFRLLKGEHIGLVGANGEGKSTFMNIITSQLEPDEGKVEWAKHVRVGYLDQHAVLSKGLTIRDALKGAFQYLFDIEQEINDLYTKMGEVEPDELEKMLEEVGVLQDILTNNDFYTIDAKVEEIARGLGLDEIGLDRDVQELSGGQRTKILLAKLLLEKPDILLLDEPTNYLDVQHIEWLKRYLNDYENAFILISHDIPFLNSVINLIYHMENQGLNRYVGDYDNFLTVHEAKKKQHESAFKRQQQEISELKDFVARNKARVSTRNMAMSRQKKLDKMDVIELAQERPKPEFHFQTARTPSKLMFEAKGLVIGYDEPLSRPLDLMIERGQKIALHGANGIGKSTLLKSLLGEIPSVSGTVERGENLHIGYFEQEIKEKNSNTCIEEIWGTFPSLTQQQVRAMLAKCGLMTKHIESKIEVLSGGEKAKVRLCKLMNTESNILVLDEPTNHLDVEAKEELKRALQEYKGTVLLISHEPEFYEAVATDLWNCESWTTKVF,not soluble
7,MGSDKIHHHHHHMKPERILNVPGAVNFRELGGYQTKFNQTIKWQKLLRSGELSHLTPRTQALLADYGLKYDIDLRSPAEASWSSDKIPAQTIYRFYPVYPIQDNEKSDLPQNKHLKYQAYEQSLYDPYLTMAFSEHSRIAFHQMFVDLLANTNEKESLLFHCAAGKDRTGMAGMLILSALQVPYQTIREDYLLTNLVYSNQDPDELRRQITGKHVDKLIQKMNSVFSVTASSLDHTHDLILDRFGSFDHYFKEALEFSDQDLADLRQIYLE,not soluble
8,GFIELHAHLAFQKVPADIVLRHGVTTLRDVGGPVHPPYGGEGSLRVLTSGRIITAPHGYPIVTMGARDLAIPVASEAEAREAVRHLVGEGAVIIKIALEPGSEAGAPWSSHHDHAHHDAAHTASAVTHHHAHAASHDQSAWPMLPEPIVKAVVDEAHRHQRKVSAHVAEPSGVQVALNAGVDEWAHMPCNPIPEPLLKQARAQNVTIIGTLDTLSKCSGIAHNTMVWTELGGELLYGTEIAHPDIPWGIDAQELMYLMHLGKMKLLDALGAATAKAGRYLGIPMLGTIQPGAPADLIAIRGNPEQQLKRLEYPDLVISGGHIVVNHFSSLP,not soluble
9,MAHHHHHHMMRIKQKAFVGKKICIAWEVLHDGKGWKAQGKALQILRFYAFSSEVYLMCRIRDADDKKQICNLVKAVDGIERHRVLFCTTEKGYEAFTRQIDPSLLITNNAAQVAFLKRVIQTLVLVGGDGVVASNVACVPSVEAIAVDLE,not soluble
10,MKNELICYKQMPVWTKDNLPQMFQEKHNTKVGTWGKLTVLKGKLKFYELTENGDVIAEHIFTPESHIPFVEPQAWHRVEALSDDLECTLGFYCKKEDYFSKKYNTTAIHGDVVDAAKIISPCKVLDLGCGQGRNSLYLSLLGYDVTSWDHNENSIAFLNETKEKENLNISTALYDINAANIQENYDFIVSTVVFMFLNRERVPSIIKNMKEHTNVGGYNLIVAAMSTDDVPCPLPFSFTFAENELKEYYKDWEFLEYNENMGELHKTDENGNRIKMKFATMLARKKLEHHHHHH,not soluble
11,MFYCRSGFEKECAGEIQDKATQLEVFGFPRLKNNTGYVLFECYQEGDADRLIREIKFNELIFARQMFAVAAEVSDLPKDDRISPILDALSDVDGVPCCGDIRIETPDTNEAKELLKFCRKFTVPMRQALRGKKMLTERDSNRIPVLHICFIAPGHCYVGYSYTNNNSQFFMGIPRLKFPADAPSRSTLKLEEAFHVFIPKEEWDDRLASGMWGVDLGACPGGWTYQLVKRSMFVHAIDNGMMAQSLMDTGQVKHHMVDGFKFEPPRKNVTWLICDMVEKPARVAHLMGEWLIKGWAKEALFNLKLPMKGRYDEVLQDIENLKDFLKKNGFQYKLQAKHLYHDREEITVHIQAISNISPH,not soluble
12,MSLGSIKDNLSEIRNKIDKAAKKVDRDSKEITLLAVTKTVDVDLVNEAMREGITSVGENKPQELARKYDIIGDKLNWHLIGTLQTNKVKYIIDKVCMIHSLDRIALCEEIQKRAEQINREIDCLVQVNISKEESKHGLDREEVVDFVKEVSEKYKNIKIKGLMTMAPFIEDEDEIRGVFKGLKDLSKQIKELNIPNVGMDVLSMGMSHDYEIAIEEGATIVRVGTSIFGERNYNKEGHHHHHH,soluble
13,MSFSKLLDLLTGREAQRTAIDWDAKYGTDTRSTVELHGLTISHDSRRFGERYQASDPSALSDALAFVGLDPRSYRFVDLGCGKGRMLIVAAELGFKSCIGVEFADELAQTAKANAAAAGFDTISVVHGDAGAYAFQDEPFVLYLFNPFSHQIMQRVRDNLLKLRRAEYYVIYKNPRERRIFDEMQTLRYLGTPPAHKGVWGVHVWGPRGELEHHHHHH,not soluble
14,MGSDKIHHHHHHMRSPVPRVAAIHDLSGFGRTSLTVAIPVLSAMGIQVCPMPTAMLSTHTSGFKGFSFIDLTAEMRRFFDHWKSLNIRFDAIYSGFLGSPDQVAIVAQCIDMFRTPDGFAVVDPVLGDNGELEPTMDMEMVHRMRWLVSKADIITPNFTEAALLLDEPYREHIDQPTLKDWLRRLTAMGPHVAVVTSVPVEGSRTTTSVVAYNRPHDRFWKVDCQYIPAHYPGTGDTFASVLTGSILQGDSLPIAIERAVQFVTMGIRATFGHNSPSREGILLERVLDTLRAPVTMSSYELLEE,not soluble
